pKd: −log10 of the molar value.

In assay [1] the target is Photo-Met labeled CaM (UniProt P0DP23). The experiment in a line: cross-linking; photo-cross-linking of photo-Met-labeled CaM with segment-B, SDS-PAGE analysis (data not shown).
The target in assay [2] is biotinylated photo-Met-labeled CaM (UniProt P0DP23). Put plainly: SPR; biotinylated photo-Met-CaM immobilised on streptavidin on a PEG-biotin chip; segment-C and variants injected at 0.1–1 µM in 20 mM HEPES, 230 mM NaCl, 0.5 mM TCEP, pH 7.2; 30 µL/min.
For assay [3], the target named is Photo-Met labeled CaM (UniProt P0DP23). The experiment in a line: cross-linking; photo-cross-linking of photo-Met-labeled CaM (10 µM) with 10 µM segment-A, -B or -C; 20 mM HEPES, 250 mM NaCl, 0.5 mM TCEP, 7.5% glycerol, pH 7.2, 25 °C; free Ca2+ 75 nM to 1 mM (EGTA system); UV-A 360 nm; SDS-PAGE and LC-MS/MS.
Assay [4] deals with CaM (bovine brain) (bovine) (UniProt P62157). Put plainly: cross-linking; chemical cross-linking (BS3, DSBU 1 mM; s-GMBS in two steps) of CaM (bovine brain, 10 µM) with 10 µM segment-A; 20 mM HEPES, 230 mM NaCl, 0.5 mM TCEP, 7.5% glycerol, pH 7.2, 25 °C; 750 nM and 1 mM Ca2+; SDS-PAGE and LC-MS/MS.
The target in assay [5] is CaM (source not told for this experiment) (UniProt P62157). The experiment in a line: native gel or EMSA; native gel electrophoresis of the CaM/segment-A complex (Figure S5). (In general: Mobility shift assays separate free from complexed probe on a gel.)
Assay [6] has the same target. The experiment in a line: native MS; 10 µM CaM and segment-A in 300 mM ammonium acetate pH 7.0; residual Ca2+ around 5 µM.

In the case of “bMunc13-2 segment-B (aa 367–903) (from UniProt Q62769-2 367-903) (domain or fragment)”, the stoichiometry N (segment-B per CaM) with Photo-Met labeled CaM [1] is 1.
“bMunc13-2 segment-C (aa 703–742) (peptide)” showed a negative-log Kd (pKd) in assay [2] of 6.80. This substance also came in with a stoichiometry N (segment-C per CaM) with Photo-Met labeled CaM [3] of 1.
On to “bMunc13-2 segment-A (aa 367–780) (from UniProt Q62769-2 367-780) (domain or fragment)”, for which the stoichiometry N (segment-A per CaM) (in assay [4]; in assay [5]; in assay [6]; in the assay with Photo-Met labeled CaM [3]) was 1 each time.

One may read the pKd as the negative decadic logarithm of the Kd, by convention in mol/L. Read a low pKd as a large Kd.
